Target: SARS-CoV-2 recombinant spike HexaPro protein (SARS-CoV-2) (UniProt P0DTC2)
Experiment: SPR

For “ACE2 monomer construct (SS-ACE2-Linker) (from UniProt Q9BYF1 19-614)”, which Kd is on record?
The Kd was 72 nM.

From patent US20250367270A1
